This is an account of results in publication PMC6445123 (Scientific Reports, 2019).

Numbering of substitutions follows the chain as printed. In names and notes the source's numbering stands.

Sequences and labels used below:
T1: recombinant active Casp6 (Casp6-WT) (Homo sapiens, UniProt P55212, INS179NQTEKLDTNITEVD)
T1 construct: generating mainly large subunit with a linker (LS-L), small subunit (SS), and a minor amount of large subunit (LS); His (C); made in house; host or cells: E. coli BL21(DE3)pLysS
T1 sequence (P55212 24-193 limits assumed): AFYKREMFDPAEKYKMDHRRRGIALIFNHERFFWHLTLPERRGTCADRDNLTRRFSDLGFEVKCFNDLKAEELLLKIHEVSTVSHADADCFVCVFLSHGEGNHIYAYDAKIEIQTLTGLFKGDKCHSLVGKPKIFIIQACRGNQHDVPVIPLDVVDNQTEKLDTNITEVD
T1 sequence (P55212 194-293 limits assumed): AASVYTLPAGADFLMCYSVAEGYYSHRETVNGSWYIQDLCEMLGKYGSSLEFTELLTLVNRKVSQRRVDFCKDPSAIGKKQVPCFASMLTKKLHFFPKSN

T2: recombinant active Casp6 (Homo sapiens, UniProt P55212, INS179NQTEKLDTNITEVD)
T2 construct: generating mainly large subunit with a linker (LS-L), small subunit (SS), and a minor amount of large subunit (LS); His (C); made in house; host or cells: E. coli BL21(DE3)pLysS
T2 sequence (P55212 24-193 limits assumed): T1 sequence (P55212 24-193 limits assumed)
T2 sequence (P55212 194-293 limits assumed): T1 sequence (P55212 194-293 limits assumed)

T3: Casp6-E35K large subunit with linker (LS-L) (human, UniProt P55212 24-193, E35K)
T3 construct: human Caspase-6, large subunit with linker (LS-L) left after complete self-processing at TETD23 and TEVD193; a minor amount is also cut at DVVD179 (LS); rare natural SNP variant E35K; source: E. coli BL21(DE3)pLysS, self-processed from full-length Casp6-E35K, purified
T3 sequence (looked up): T1 sequence (P55212 24-193 limits assumed) with E12K

B1: Casp6-WT: recombinant wild-type human Casp6 expressed in E. coli from full-length construct (protein, UniProt P55212 1-293, looked up)
chain: MSSASGLRRGHPAGGEENMTETDAFYKREMFDPAEKYKMDHRRRGIALIFNHERFFWHLTLPERRGTCADRDNLTRRFSDLGFEVKCFNDLKAEELLLKIHEVSTVSHADADCFVCVFLSHGEGNHIYAYDAKIEIQTLTGLFKGDKCHSLVGKPKIFIIQACRGNQHDVPVIPLDVVDNQTEKLDTNITEVDAASVYTLPAGADFLMCYSVAEGYYSHRETVNGSWYIQDLCEMLGKYGSSLEFTELLTLVNRKVSQRRVDFCKDPSAIGKKQVPCFASMLTKKLHFFPKSN
modifications: full-length
notes: recombinant wild-type human Casp6 expressed in E. coli from full-length construct
B2: Casp6-K284A: Casp6 K284A alanine mutant from full-length construct, partially self-processed (protein, UniProt P55212 1-293, looked up, variant K284A)
chain: B1 chain with K284A
modifications: full-length
notes: Casp6 K284A alanine mutant from full-length construct, partially self-processed
B3: Casp6-T182S: recombinant rare natural human Casp6 missense variant T182S (protein, UniProt P55212 1-293, looked up, variant T182S)
chain: B1 chain with T182S
B4: Casp6-A34E: recombinant rare natural human Casp6 missense variant A34E (protein, UniProt P55212 1-293, looked up, variant A34E)
chain: B1 chain with A34E
B5: Casp6-A109T: recombinant rare natural human Casp6 missense variant A109T (protein)
chain 1: T1 sequence (P55212 24-193 limits assumed) with A86T
chain 2: T1 sequence (P55212 194-293 limits assumed)
modifications: left off: His (from the plasmid name pET23b-Casp6-His), end not stated, state not stated
B6: Casp6 small subunit (SS) from self-processed Casp6 (domain or fragment, human, UniProt P55212 194-293, looked up)
chain: T1 sequence (P55212 194-293 limits assumed)
notes: human Caspase-6, small subunit (SS) left after self-processing at TEVD193; That the His tag sits on this chain is surmised from the plasmid's name; source: E. coli BL21(DE3)pLysS, self-processed from full-length Casp6 variant, purified
B7: Casp6-E35K, fully processed (mature, apo) (complex, human)
chain 1: T1 sequence (P55212 24-193 limits assumed) with E12K
chain 2: T1 sequence (P55212 194-293 limits assumed)
notes: human Caspase-6, large subunit with linker (LS-L) left after complete self-processing at TETD23 and TEVD193; a minor amount is also cut at DVVD179 (LS); rare natural SNP variant E35K; human Caspase-6, small subunit (SS) left after self-processing at TEVD193; One protomer (LS-L plus SS); two protomers form the dimer seen in the crystal; That the His tag sits on the small subunit is surmised from …

The target in one data set is T1, recombinant active Casp6 (Casp6-WT). The data set is described as follows: Fluorescence-based Ac-VEID-AFC cleavage assay (Casp6 activity, IC50 determination). Particulars: 100 µM compound, 10 µM Ac-VEID-AFC, 20 nM Casp6, relative to 1% DMSO control. Format: biochemical. As to the method: (§1) To assess the potency of in silico hits, a fluorescence-based Ac-VEID-AFC cleavage assay was used to measure recombinant active Casp6 reaction rate in the absence or presence of 100 µM concentration of compounds. A 30% inhibition cut off was arbitrarily chosen for further investigation of putative inhibitors. […] AFC signal interference by compound intrinsic fluorescence was ruled out (Fig. S4). Casp6 inhibition was confirmed for seven compounds (C7, C13, C14, S2, S10, S11 and S13) using a colorimetric Ac-VEID-pNA cleavage assay (Table 2, Fig. S3).
(§2) Casp6 active sites were quantified using zVAD-FMK (N-benzyloxycarbonyl-Val-Ala-Asp-(O-methyl)-fluoromethylketone, MP Biomedicals, Santa Ana, CA, USA)[51],[64]. Casp6 activity was measured in Stennicke’s buffer (SB: 20 mM piperazine-N,N′-bis-(2-ethanesulfonic acid) pH 7.2, 100 mM NaCl, 10 mM DTT, 1 mM EDTA, 0.1% 3-[(3-cholamidopropyl)-dimethylammonio]-2-hydroxy-1-propanesulfonic acid, 10% sucrose)[65] using 40 µM Ac-VEID-AFC (Ac-Val-Glu-Ile-Asp-7-Amino-4-trifluoromethylcoumarin, Enzo Life Sciences, Farmingdale, NY, USA)[64] and 10-250 nM active site titrated Casp6. Reactions were initiated by Ac-VEID-AFC addition and followed for 20 min at 37 °C in a black clear bottom 96-well microplate (Costar, Corning, NY, USA) in Synergy H4 Hybrid instrument (BioTek, Winooski, VT, USA) with excitation/emission at 380/505 nm. Released AFC was calculated from AFC standard curve (0-25 µM). Casp6 VEIDase activity (released pmol AFC/min) was calculated from the initial linear reaction part. Ac-VEID-AFC hydrolysis initial velocities were measured with 10 nM active-site titrated Casp6 and […] Ac-VEID-AFC. Initial velocities v versus substrate concentration [S] were fit to a rectangular hyperbola using Michaelis-Menten equation in GraphPad Prism 5 (GraphPad Software, La Jolla, CA, USA).
(§3) In fluorescence-based Casp6 activity assay, 10 µM Ac-VEID-AFC was added to 20 nM Casp6 in SB with 100 μM compound and 1% dimethyl sulfoxide (DMSO), and reaction rate was measured for 20 min at 37 °C as above. Compound potency was calculated by normalising Ac-VEID-AFC cleavage rate to 1% DMSO control. In colorimetric Casp6 activity assay, 200 µM Ac-VEID-pNA (N-acetyl-Val-Glu-Ile-Asp-p-nitroanilide, Enzo Life Sciences) was added to 200 nM Casp6 in SB with 100 μM compound, and Ac-VEID-pNA cleavage rate was measured at 37 °C for 30 min in clear 96-well plate (Sartstedt, Nümbrecht, Germany) using Synergy H4 plate reader at 405 nm. Absorbance was converted to the released pNA amount based on a standard curve of 0–250 µM pNA. Cleavage rates were calculated from the linear assay phase and were normalised to 1% DMSO control. In Casp6-C163A cleavage assay, 0.5 ng/µl Casp6-WT was preincubated with 100 µM inhibitor, 5 µM Q-VD-OPh or 1% DMSO in SB (30 min, RT), followed by transfer on ice, addition of 0.5 µg/µl Casp6-C163A, and incubation (37 °C, 5, 10 and 15 min). Reactions were stopped by adding SDS-PAGE sample buffer (62.5 mM Tris pH 6.8, 2% SDS, 0.1 M DTT, 0.01% Bromphenol Blue, 10% glycerol) and heating (5 min, 95 °C). Samples (2 µl) were analysed on 15% SDS-PAGE gels, proteins were stained with Coomassie blue, and gels were de-stained with 10% acetic acid. The intensities of protein bands were quantified from scanned gels using ImageJ. The band intensity of Casp6-C163A without a prodomain was plotted against the time and the Casp6-C163A cleavage rates were calculated from the slopes of linear plots. The % activity of Casp6-WT in the presence of inhibitors was calculated relative to DMSO control.
IC50 values were determined against 20 nM Casp6 active sites in fluorescence-based Casp6 activity assay with 10 µM Ac-VEID-AFC and 1 nM-500 µM inhibitor. IC50 was calculated with GraphPad Prism 5 by a nonlinear regression fit for log inhibitor vs relative Casp6 activity (% DMSO control) using a Hill slope of – 1, and top and bottom constraints of 100 and 0, respectively.
On to `O=C(Cn1cc(/C=C2/C(=O)NC(=O)N(Cc3ccco3)C2=O)c2ccccc21)NCC1CCCO1` (stereo not drawn) [Compound S10], for which the “% Inhibition with 100 µM compound (fluorescence assay)” value (from here on “% Inhibition … (fluorescence assay)”) is listed as 59.7 ± 3.8%.
In the case of `Nc1nc2c(s1)C(c1ccc(OCc3cccc(F)c3)cc1)CC(=O)N2` (stereo not drawn) [Compound S11], the “% Inhibition … (fluorescence assay)” value was determined as 30.0 ± 6.0%.
On to `Cc1nn(-c2ccccc2)c2c1C(c1cccc(OCc3ccccc3)c1)C(C#N)=C(N)O2` (stereo not drawn) [Compound S13], for which the “% Inhibition … (fluorescence assay)” value was 33.8 ± 12.1%.

The same data set, now with this note: fluorescence assay, 20 nM Casp6 active sites, 10 µM Ac-VEID-AFC; read-out: IC50.
For `O=C(Cn1cc(/C=C2/C(=O)NC(=O)N(Cc3ccco3)C2=O)c2ccccc21)NCC1CCCO1` (stereo not drawn) [Compound S10], the IC50 came out at 30.2 ± 6.8 µM.
Same read-out and setting: for `Nc1nc2c(s1)C(c1ccc(OCc3cccc(F)c3)cc1)CC(=O)N2` (stereo not drawn) [Compound S11] the value was 289 ± 60.9 µM; for `Cc1nn(-c2ccccc2)c2c1C(c1cccc(OCc3ccccc3)c1)C(C#N)=C(N)O2` (stereo not drawn) [Compound S13], 159 ± 27.7 µM.

The target in a further data set is T2, recombinant active Casp6. The data set is described as follows: Colorimetric Ac-VEID-pNA cleavage assay. Format: biochemical. Particulars: 200 µM Ac-VEID-pNA, 200 nM Casp6. Here is the method:
as §1, §3
For `O=C(Cn1cc(/C=C2/C(=O)NC(=O)N(Cc3ccco3)C2=O)c2ccccc21)NCC1CCCO1` (stereo not drawn) [Compound S10], the “% Inhibition with 100 µM compound (colorimetric assay)” value was found to be 42.6 ± 3.4%.
With `Nc1nc2c(s1)C(c1ccc(OCc3cccc(F)c3)cc1)CC(=O)N2` (stereo not drawn) [Compound S11], the “% Inhibition with 100 µM compound (colorimetric assay)” value came out at 56.3 ± 2.3%.
Still for that read-out and setting: for `Cc1nn(-c2ccccc2)c2c1C(c1cccc(OCc3ccccc3)c1)C(C#N)=C(N)O2` (stereo not drawn) [Compound S13] the value was 41.9 ± 8.2%.

Tested on in the next data set: not listed separately
The data set is described as follows: Ac-VEID-AFC hydrolysis kinetics of recombinant Casp6 variants (Michaelis-Menten). The class given is biochemical, human. Particulars: Ac-VEID-AFC hydrolysis, mean ± SD.
Text: In this study, we investigated how naturally occurring rare missense variants of human CASP6 affect Casp6 activity and structure. […] A34, E35, A109, and T182 are not conserved in 12 human caspases and in Casp6 from different species (Fig. 1a,b). Recombinant Casp6-WT and the four variants were expressed in E. coli, purified, and active site titrated (Fig. S2) for functional analyses. Like Casp6-WT, Casp6 variants, underwent complete self-processing at TETD23, and TEVD193 sites, and slight self-cleavage at the DVVD179 site, generating mainly large subunit with a linker (LS-L), small subunit (SS), and a minor amount of large subunit (LS) (Fig. 1c,d).
as §2
Take B1: the Km worked out at 31.2 ± 6.7 µM and the kcat was found to be 2.27 ± 0.30 s⁻¹.
On the same counts, the results for B2 are 32.6 ± 10.8 µM and 2.0 ± 1.5 s⁻¹.
On the same counts, the results for B3 are 33.3 ± 1.2 µM and 2.42 ± 0.12 s⁻¹.
On the same counts, the results for B4 are 22.7 ± 0.8 µM and 2.04 ± 0.10 s⁻¹.
On to B5, for which the Km stood at 34.5 ± 1.8 µM and the kcat amounted to 2.51 ± 0.16 s⁻¹.

The target in the next data set is T3, Casp6-E35K large subunit with linker …. The data set can be described thus: crystal structure; apo, fully processed Casp6 variant; crystals from 100 mM sodium acetate pH 4.6, 2 M sodium chloride, hanging drop vapour diffusion at 22 °C. Particulars: both partners purified.
For the molecule B6, the binding result is listed as “binds”.

A further data set concerns the molecule itself. The description is as above.
Conditions: not given
With B7, the binding result is on record as “binds”.

A word on the IC50: it is the concentration that gives 50% inhibition. As usually defined, the Km is the concentration of substrate that gives half-maximal velocity. As usually defined, the kcat is the number of substrate molecules converted per active site and unit of time at saturation.
